Assay results taken from patent US20030158083A1, “Method of effecting angiogenesis by modulating the function of a novel endothelia phosphatase” (The Procter & Gamble Company, priority 2002, published 2003).

Experiments:
[1] = Peptide phosphatase assay (BIOMOL green); assay type: biochemical; settings: any peptide substrates examined; data not shown
[2] = Phosphatase activity with fluorogenic substrate DiFMUP; assay type: biochemical
Protocol: Purified, recombinant KAPh phosphatase domain (amino acids 83-464 SEQ ID NO 4) (100 μg/mL) and full-length PTEN (amino acids 1-403) (100 μg/mL) were each mixed with a fluorogenic phosphatase substrate 6,8-difluoro-4-methylumbelliferyl phosphate (DiFMUP) (Molecular Probes, Eugene, Oreg.) at a final concentration of a 100 μM in assay buffer (10 mM sodium acetate, pH 6.0, 150 mM NaCl, 5 mM DTT). Following incubation at ambient temperature for 15 or 60 min., the fluorescence intensity of the 6,8-difluoro-4-methylumbelliferone (DiFMU) product was measured in triplicate and used as an assessment of phosphatase activity. A Victor 5 microplate reader from Wallac (Turku, Finland) was used to read the fluorescence intensity from 384-well microplates (Corning Inc., Corning, N.Y.).

VEGF receptor-2 = molecular target: T1, VEGF receptor-2 (Homo sapiens, UniProt P35968); experiment: Dephosphorylation of 32P-labeled VEGF receptor-2; assay type: biochemical; settings: incubated overnight; data not shown
T1 construct: Co-immunoprecipitation of full-length KAPh with full-length VEGF receptor-2; expressed in transfected cells
T1 sequence (P35968 20-1356): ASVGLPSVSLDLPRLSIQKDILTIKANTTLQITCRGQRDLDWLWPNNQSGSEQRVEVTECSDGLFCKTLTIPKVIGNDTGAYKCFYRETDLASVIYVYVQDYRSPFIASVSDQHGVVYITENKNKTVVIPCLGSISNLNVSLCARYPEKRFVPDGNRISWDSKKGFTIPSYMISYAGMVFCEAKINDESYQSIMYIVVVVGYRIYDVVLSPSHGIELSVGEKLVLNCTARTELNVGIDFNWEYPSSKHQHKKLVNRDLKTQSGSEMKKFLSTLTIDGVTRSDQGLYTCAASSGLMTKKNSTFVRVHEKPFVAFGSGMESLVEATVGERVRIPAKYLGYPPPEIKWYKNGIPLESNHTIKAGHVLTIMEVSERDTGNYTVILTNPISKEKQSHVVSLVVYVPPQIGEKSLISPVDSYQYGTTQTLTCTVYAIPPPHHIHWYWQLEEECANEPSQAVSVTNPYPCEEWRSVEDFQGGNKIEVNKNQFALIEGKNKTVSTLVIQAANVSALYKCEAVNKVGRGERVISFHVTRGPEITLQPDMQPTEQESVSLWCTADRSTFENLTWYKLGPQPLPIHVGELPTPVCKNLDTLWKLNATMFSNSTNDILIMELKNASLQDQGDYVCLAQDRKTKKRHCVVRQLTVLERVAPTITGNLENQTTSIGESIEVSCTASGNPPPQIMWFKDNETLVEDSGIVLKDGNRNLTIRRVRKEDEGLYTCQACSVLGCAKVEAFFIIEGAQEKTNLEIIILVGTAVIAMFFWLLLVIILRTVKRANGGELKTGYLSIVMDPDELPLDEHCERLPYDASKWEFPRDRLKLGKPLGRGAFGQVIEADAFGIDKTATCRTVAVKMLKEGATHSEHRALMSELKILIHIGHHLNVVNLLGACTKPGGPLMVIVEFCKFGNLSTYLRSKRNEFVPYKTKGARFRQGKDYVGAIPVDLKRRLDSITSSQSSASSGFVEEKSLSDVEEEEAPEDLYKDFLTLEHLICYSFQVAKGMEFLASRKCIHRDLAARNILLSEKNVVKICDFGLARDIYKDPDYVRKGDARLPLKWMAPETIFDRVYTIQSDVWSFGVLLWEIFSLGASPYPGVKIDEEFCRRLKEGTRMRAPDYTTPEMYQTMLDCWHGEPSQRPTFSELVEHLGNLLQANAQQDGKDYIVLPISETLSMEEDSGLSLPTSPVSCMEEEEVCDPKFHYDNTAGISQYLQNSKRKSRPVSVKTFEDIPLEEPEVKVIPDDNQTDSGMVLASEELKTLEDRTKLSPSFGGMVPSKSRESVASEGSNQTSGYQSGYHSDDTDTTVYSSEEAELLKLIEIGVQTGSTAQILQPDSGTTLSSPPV

Tie 2 = experiment: GST pull-down association assay, Tie 2; assay type: binding, human; settings: wild-type and kinase-inactive mutant
Excerpt: (§1) Recombinant VEGFR-1 kinase (wild-type and K862R mutant), VEGFR2 kinase (wild-type and K870R mutant), Tie1 kinase (wild-type and K871R mutant), and Tie2 kinase (wild-type and K856R mutant) were expressed as glutathione S-transferase (GST) fusion proteins in Sf9 cells using a baculovirus expression system. Briefly, the intracellular domain of each receptor tyrosine kinase was generated as an in-frame GST fusion using the pAcGHLT baculovirus transfer vector (Pharmingen, San Diego, Calif.). Each baculovirus transfer vector construct was cotransfected with BaculoGold (Pharmingen, San Diego, Calif.) linearized AcNPV baculovirus DNA into Sf9 cells for the generation of recombinant baculoviruses. Five days post-transfection, recombinant baculoviruses were harvested and amplified by re-infection of Sf9 cells. Each amplified baculovirus was then used to infect Sf9 cells for the expression of the recombinant kinases. […]
(§2) The immobilized, autophosphorylated kinases were then incubated with HEK 293 cell lysates which overexpressed either the KAPh SH2 domain or KAPh full-length protein. […] KAPh protein that associated with the recombinant kinases was analyzed by Western blot using a chemiluminescence detection system (Amersham Pharmacia, Piscataway, N.J.).

Tie 1 = experiment: GST pull-down association assay, Tie 1; assay type: binding, human; settings: wild-type and kinase-inactive mutant
Excerpt: as §1, §2

[3] = molecular target: T2, human VEGFR2 intracellular domain (Homo sapiens, UniProt P35968, K868R); experiment: Yeast two-hybrid interaction with intracellular domain of VEGFR2; assay type: binding; settings: ATP binding site mutated (K870R)
T2 construct: expressed in transfected cells; host or cells: yeast strain MaV203 (pDBLeu-hVEGFR2)
T2 sequence (P35968 790-1356 K868R): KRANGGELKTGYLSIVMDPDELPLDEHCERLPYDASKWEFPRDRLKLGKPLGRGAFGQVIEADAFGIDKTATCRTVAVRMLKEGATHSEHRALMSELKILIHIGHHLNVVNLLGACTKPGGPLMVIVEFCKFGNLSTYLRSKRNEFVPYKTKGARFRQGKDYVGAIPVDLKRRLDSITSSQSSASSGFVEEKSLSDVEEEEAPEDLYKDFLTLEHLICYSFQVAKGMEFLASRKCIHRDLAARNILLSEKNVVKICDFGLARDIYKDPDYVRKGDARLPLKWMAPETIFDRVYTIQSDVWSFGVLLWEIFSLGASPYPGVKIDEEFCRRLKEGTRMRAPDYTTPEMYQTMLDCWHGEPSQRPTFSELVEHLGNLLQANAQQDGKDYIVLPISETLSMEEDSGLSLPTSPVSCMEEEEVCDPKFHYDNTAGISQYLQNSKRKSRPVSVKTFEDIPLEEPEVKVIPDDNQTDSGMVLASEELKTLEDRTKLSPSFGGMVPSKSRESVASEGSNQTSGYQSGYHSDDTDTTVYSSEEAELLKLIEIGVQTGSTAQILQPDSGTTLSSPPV
Excerpt: (§3) All two-hybrid plasmid constructs used the pDBLeu and pPC86 yeast expression vectors as a part of the ProQuest Two-Hybrid System (Life Technologies, Rockville, Md.). A cDNA encoding the intracellular domain of human VEGFR2 was generated by PCR from a human VEGFR2/pJFE14 construct, obtained from Regeneron Pharmaceuticals (Tarrytown, N.Y.), and subcloned into the yeast bait vector downstream of the GAL4 DNA-binding domain. A human umbilical vein endothelial cell (HUVEC) cDNA library (in pPC86) was co-transformed with pDBLeu-hVEGFR2 into the MaV203 strain of yeast. Proteins that interacted with the intracellular domain of human VEGFR2 were selected and tested for specificity according to the manufacturer's instructions.
(§4) In an ongoing effort to understand mechanisms by which the biological activity of VEGF is mediated through the VEGF receptor-2 (KDR/Flk-1), we used the entire cytoplasmic domain of KDR as bait to screen human umbilical vein endothelial cell (HUVEC) and human fetal brain cDNA libraries in the yeast two-hybrid system. The intracellular domain of human VEGFR2 (790-1357 SEQ ID NO 8) was constructed in the bait plasmid (pDBLeu) and the cDNA libraries were constructed in the prey plasmid (pPC86). Following transformation of yeast, positive clones were selected by growth on histidine-deficient media and for the expression of β-galactosidase activity (X-gal selection). […]

[4] = molecular target: T3, human VEGFR2 intracellular domain (Homo sapiens, UniProt P35968); experiment: as above; assay type: binding; settings: growth on histidine-deficient and uracil-deficient media
T3 construct: expressed in transfected cells; host or cells: yeast strain MaV203 (pDBLeu-hVEGFR2)
T3 sequence (P35968 790-1356): as the sequence (P35968 790-1356 K868R) above, with R79K counted along it
Excerpt: as §3, §4

[5] = molecular target: T4, human VEGF receptor-2 (KDR) (Homo sapiens, UniProt P35968); experiment: GST pull-down association assay, VEGFR2; assay type: binding; settings: HEK 293 lysate expressing His-tagged protein; Western blot
T4 construct: the intracellular domain of each receptor tyrosine kinase was generated as an in-frame GST fusion; made in house; host or cells: Sf9 insect cells (baculovirus)
T4 sequence (P35968 790-1356): as the sequence (P35968 790-1356 K868R) above, with R79K counted along it

[6] = molecular target: T5, human VEGF receptor-2 (KDR) (Homo sapiens, UniProt P35968, Y1175F); experiment: GST pull-down association assay, VEGFR2; assay type: binding; settings: GST fusion Y1175F versus wild-type
T5 construct: the intracellular domain of each receptor tyrosine kinase was generated as an in-frame GST fusion; made in house; host or cells: Sf9 insect cells (baculovirus)
T5 sequence (P35968 790-1356 Y1175F): as the sequence (P35968 790-1356 K868R) above, with R79K, Y386F counted along it

[7] = molecular target: T6, human VEGF receptor-2 (KDR) (Homo sapiens, UniProt P35968, Y951F); experiment: GST pull-down association assay, VEGFR2; assay type: binding; settings: GST fusion Y951F versus wild-type
T6 construct: the intracellular domain of each receptor tyrosine kinase was generated as an in-frame GST fusion; made in house; host or cells: Sf9 insect cells (baculovirus)
T6 sequence (P35968 790-1356 Y951F): as the sequence (P35968 790-1356 K868R) above, with R79K, Y162F counted along it

fluorescent product (DiFMU) generated, fold over buffer control ([2]; 100 μg/mL protein, 100 μM DiFMUP, pH 6.0, ambient temperature, 60 min incubation): ~10 fold
yeast two-hybrid interaction with KDR K870R mutant [3]: essentially no significant interaction
yeast two-hybrid interaction with wild-type KDR [4]: robust protein-protein interaction
interaction with VEGFR2 Y1175F mutant [6]: nearly abolished
association with VEGFR2 Y951F mutant [7]: no significant change in association
B1: KAPh: novel human KDR Associated Phosphatase protein, full-length sequence SEQ ID NOS 1 and 2 (protein, listed as Homo sapiens)
chain: MKPRKAEPHSFREKVFRKKPPVCAVCKVTIDGTGVSCRVCKVATHRKCEAKVTSACQALPPVELRRNTAPVRRIEHLGSTKSLNHSKQRSTLPRSFSLDPLMERRWDLDLTYVTERILAAAFPARPDEQRHRGHLRELAHVLQSKHRDKYLLFNLSEKRHDLTRLNPKVQDFGWPELHAPPLDKLCSICKAMETWLSADPQHVVVLYCKGNKGKLGVIVSAYMHYSKISAGADQALATLTMRKFCEDKVATELQPSQRRYISYFSGLLSGSIRMNSSPLFLHYVLIPMLPAFEPGTGFQPFLKIYQSMQLVYTSGVYHIAGPGPQQLCISLEPALLLKGDVMVTCYHKGGRGTDRTLVFRVQFHTCTIHGPQLTFPKDQLDEAWTDERFPFQASVEFVFSSSPEKIKGSTPRNDPSVSVDYNTTEPAVRWDSYENFNQHHEDSVDGSLTHTRGPLDGSPYAQVQRPPRQTPPAPSPEPPPPPMLSVSSDSGHSSTLTTEPAAESPGRPPPTAAERQELDRLLGGCGVASGGRGAGRETAILDDEEQPTVGGGPHLGVYPGHRPGLSRHCSCRQGYREPCGVPNGGYYRPEGTLERRRLAYGGYEGSPQGYAEASMEKRRLCRSLSEGLYPYPPEMGKPATGDFGYRAPGYREVVILEDPGLPALYPCPACEEKLALPTAALYGLRLEREAGEGWASEAGKPLLHPVRPGHPLPLLLPACGHHHAPMPDYSCLKPPKAGEEGHEGCSYTMCPEGRYGHPGYPALVTYSYGGAVPSYCPAYGRVPHSCGSPGEGRGYPSPGAHSPRAGSISPGSPPYPQSRKLSYEIPTEEGGDRYPLPGHLASAGPLASAESLEPVSWREGPSGHSTLPRSPRDAPCSASSELSGPSTPLHTSSPVQGKESTRRQDTRSPTSAPTQRLSPGEALPPVSQAGTGKAPELPSGSGPEPLAPSPVSPTFPPSSPSDWPQERSPGGHSDGASPRSPVPTTLPGLRHAPWQGPRGPPDSPDGSPLTPVPSQMPWLVASPEPPQSSPTPAFPLAASYDTNGLSQPPLPEKRHLPGPGQQPGPWGPEQASSPARGISHHVTFAPLLSDNVPQTPEPPTQESQSNVKFVQDTSKFWYKPHLSRDQAIALLKDKDPGAFLIRDSHSFQGAYGLALKVATPPPSAQPWKGDPVEQLVRHFLIETGPKGVKIKGCPSEPYFGSLSALVSQHSISPISLPCCLRILSKDPLEETPEAPVPTNMSTAADLLRQGAACSVLYLTSVETESLTGPQAVARASSAALSCSPRPTPAVVHFKVSAQGITLTDNQRKLFFRRHYPVNSITFSSTDPQDRRWTNPDGTTSKIFGFVAKKPGSPWENVCHLFAELDPDQPAGAIVTFITKVLLGQRK
phosphatase activity using peptide substrates [1]: unable to detect significant, reproducible phosphatase activity
phosphatase activity against DiFMUP relative to PTEN ([2]; KAPh versus PTEN): 1- to 2 fold
change in phosphorylation of 32P-labeled VEGF receptor-2 (VEGF receptor-2): unable to detect a change in phosphorylation
interaction with GST Tie 2 (Tie 2): no interaction
interaction with GST Tie 1 (Tie 1): no interaction
interaction with GST VEGFR2, wild-type versus catalytically inactive K870R [5]: interacted in an autophosphorylation-dependent manner
